These results are taken from patent publication US7127357 (SALK INSTITUTE FOR BIOLOGICAL STUDIES, dated 2006).

Non-standard residues stand in square brackets, D forms with d. No end group written: not given here. pT = C[C@@H](OP(=O)(O)O)[C@H](N)C(=O)O; pS = N[C@@H](COP(=O)(O)O)C(=O)O

B1: VPRpTPV (Cdc25c-T48), rhodamine-labeled (peptide)
peptide: VPR[pT]PV
modifications: also: tetramethylrhodamine label on an amine
notes: Six-residue peptide derived from human Cdc25c
B2: PPGpSPP (Myt1-S416), rhodamine-labeled (peptide)
peptide: PPG[pS]PP
modifications: also: tetramethylrhodamine label on an amine
notes: Six-residue peptide derived from human Myt1
B3: PPApTPP (Myt1-T412), rhodamine-labeled (peptide)
peptide: PPA[pT]PP
modifications: also: tetramethylrhodamine label on an amine
notes: as for B2
B4: STSpTPR (Myt1-T455), rhodamine-labeled (peptide)
peptide: STS[pT]PR
modifications: also: tetramethylrhodamine label on an amine
notes: as for B2

The test deals with T1, isolated PPIase domain of human Pin1 (human, UniProt Q13526 50-163).
T1 construct: range 50-163; also called Pin1 PPIase domain
T1 sequence (Q13526 50-163 limits assumed): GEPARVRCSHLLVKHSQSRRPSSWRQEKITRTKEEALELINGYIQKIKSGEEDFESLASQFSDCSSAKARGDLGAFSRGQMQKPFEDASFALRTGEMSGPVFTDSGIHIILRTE
Briefly: fluorescence anisotropy, rhodamine-labeled peptide.
Method: Binding Analysis. […] Lyophilized peptides were dissolved in 25 mM HEPES-Na^+ (pH 7.5), 100 mM NaCl, 1 mM DTT and stored for short periods of time at −20° C. Peptides were labeled with the amine reactive reagent tetramethylrhodamine-5-(and-6)-isothiocyanate (Molecular Probes, Inc. Eugene, Oreg.) using a 2:1 molar ratio of rhodamine to peptide in 0.1 M sodium bicarbonate (pH 9.0) at ambient temperature for 10 hr. Fluorescence data were collected on a PTI Alphascan spectrofluorimeter (Photon Technology Instruments, Santa Clara, Calif.).
Consider B1, for which the binding result was “no binding”.

As for B2, the binding result was “no binding”.

On to B3, for which the binding result was “no binding”.

As for B4, the binding result was “no binding”.
